Data set [1] deals with cell_based.
Data set [2] has as its target binding. Also noted: species or system influenza A virus. Conditions: read-out: mean Kd H5-IN05.
Data set [3] concerns in_vivo. The arrangement: species or system BALB/c mice.
Data set [4] deals with cell_based (Influenza A virus, UniProt C3W5S1).
Data set [5] deals with in_vivo. The arrangement: species or system BALB/c mice. This is another data set of the same source.
The test system of data set [6] is binding. The arrangement: species or system influenza A virus.
Data set [7] deals with cell_based. Also noted: species or system influenza A virus.
Data set [8] has as its system T1, cell_based.
T1 construct: other: purified scFvFc antibodies; transfected 293T cells; The full length HA genes of ... were cloned into pcDNA3.1 vector and transfected into 293T/17 cells to produce cell surface expressed HA
Also noted: species or system influenza A virus.

In data set [9] the test system is cell_based. The arrangement: species or system influenza A virus. The source holds these as a separate data set.
Data set [10] addresses binding (Influenza A virus, UniProt C3W5S1).
Data set [11] relates to binding. The arrangement: species or system influenza A virus. This is another data set of the same source.
Data set [12] deals with binding. The arrangement: species or system influenza A virus. The source holds these as a separate data set.
Data set [13] relates to in_vivo. Also noted: species or system BALB/c mice. The source holds these as a separate data set.
Data set [14] relates to in_vivo. Briefly: Influenza ADE study in mice, lung virus load by plaque assay. The arrangement: species or system BALB/c mice. The text has this:
Graphs of lung virus load vs dose in 3I14 (left) and 3I14 LALA (right) in an influenza antibody-dependent enhancement study in mice.
3I14 LALA avoids antibody-dependent enhancement (ADE).

The test system of data set [15] is binding. Also noted: species or system influenza A virus. This is another data set of the same source.
Data set [16] concerns the target binding. The note with it: read-out: mean Kd H9-HK99.
The target in data set [17] is cell_based (Influenza A virus, UniProt P03452).
Sequence of cell_based (Influenza A virus, UniProt P03452) (P03452 344-565): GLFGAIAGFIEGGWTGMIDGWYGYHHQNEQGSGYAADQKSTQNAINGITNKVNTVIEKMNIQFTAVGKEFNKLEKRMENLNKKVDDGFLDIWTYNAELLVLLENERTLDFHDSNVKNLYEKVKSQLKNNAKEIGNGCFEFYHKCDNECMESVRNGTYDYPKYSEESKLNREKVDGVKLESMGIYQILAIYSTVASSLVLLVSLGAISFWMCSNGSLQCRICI
Sequence of cell_based (Influenza A virus, UniProt P03452) (P03452 18-343): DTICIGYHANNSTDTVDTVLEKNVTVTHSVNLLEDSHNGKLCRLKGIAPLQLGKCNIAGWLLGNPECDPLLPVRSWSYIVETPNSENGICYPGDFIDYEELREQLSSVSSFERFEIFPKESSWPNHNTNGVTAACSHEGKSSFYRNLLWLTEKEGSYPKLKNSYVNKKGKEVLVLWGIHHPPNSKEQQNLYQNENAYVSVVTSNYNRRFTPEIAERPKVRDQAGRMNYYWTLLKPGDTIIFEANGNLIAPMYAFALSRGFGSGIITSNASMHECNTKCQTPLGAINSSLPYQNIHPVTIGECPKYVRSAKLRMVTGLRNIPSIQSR
For another data set, the system named is biochemical_functional. Also noted: species or system influenza A virus. The note with it: pH 8.
Data set [18] deals with binding. The arrangement: species or system influenza A virus. This is another data set of the same source.
Data set [19] deals with in_vivo. Also noted: species or system BALB/c mice. The source holds these as a separate data set.
For data set [20], the system named is cell_based. The arrangement: species or system influenza A virus. The source holds these as a separate data set.
The test system of data set [21] is cell_based. This is another data set of the same source.
Data set [22] deals with binding. Also noted: species or system influenza A virus. The source holds these as a separate data set.
The subject of data set [23] is in_vivo. The note with it: cited from earlier work.
The test system of data set [24] is in_vivo. The note with it: oseltamivir combined with up to 8,400 mg antibody; cited from earlier work.

Results on three molecules are retold here after patent US20260167702A1, “HUMAN BROADLY CRO[…] […] METHODS OF USE THEREOF” (Dana-Farber Cancer Institute, Inc., priority 2021, published 2026).

“And” between values parts separate entries of the source, which are not always exact repeats. Equal values may be shown once. “Also recorded” adds a separate entry of the source. Read-outs that look alike come from different tables or passages of the source.

B1: 3I14: human broadly neutralizing anti-influenza A HA stem mAb from memory B cells; VH SEQ ID NO: 2, VL SEQ ID NO: 4 (antibody, V domains shown)
VH: QVQLLESGGGVVQPGRSLRLSCAASGFTFSNYGMHWVRQAPGKGLEWVAIISFDGSKKYYANSVKGRSTISRDNSKNTLSLQMNSLGPEDTALYYCAKLPSPYYFDSRFVWVAASAFHFWGQGILVTVSS
VL: NFMLTQPPSASGTPGQRVTISCSGSSSNIGGNTVHWFQQLPGTAPKLLIYTNSLRPSGVPDRFSGSKSGTSASLAISGLQSEDEADYYCAAWDDSLNGQVFGGGTKLTVL
By Kd is commonly meant the constant that tells how readily two partners part at equilibrium. On to B1, for which the “luciferase response in Jurkat reporter cells (ADCC), H5 targets” value with cell_based [1] was “at a lower level than FI6v3, CR9114, 39.29 and F10”. In addition, the equilibrium dissociation constant (Kd) at binding [2] is 1.05 nM. In addition, in the data set on in_vivo [3], the “body weight loss, H7N7-NL219 challenge” value is given as “minimal body weight loss” and the “protection from death, H7N7-NL219 challenge” value was “fully protected”. Moreover, in the data set with cell_based [4], the “IC50 H1-CA09” value was 0.225 mg/L. In addition, in the data set on in_vivo [5], the “protection against H3N2-BR07” value came out at 80% and the “protection against H3N2-BR07, over doses” value is on record as 60-80%. In the data set on binding [6], the “Koff H5-VN04” value is 0.000383 s⁻¹ and 0.000387 s⁻¹; the “Kon H5-VN04” value is 375000 M⁻¹ s⁻¹ and 327000 M⁻¹ s⁻¹. For the same molecule, the “IC50 H3-BR07 infectious virus” value with cell_based [7] amounted to 0.3054 mg/L. In addition, the “binding to cell surface-expressed HAs by flow cytometry” value in the data set on cell_based [8] is “bound”. Moreover, in the data set on cell_based [9], the “IC50 H5-VN04 pseudovirus” value is 0.08158 mg/L. For the same molecule, in the data set with binding [10], the “Koff H1-CA09” value came to 4.87e-05 s⁻¹ and the “Kon H1-CA09” value is 174000 M⁻¹ s⁻¹. The Kd with binding [10] (read-out: Kd H1-CA09) was determined as 0.279 nM. For the same molecule, in the data set with binding [11], the “Koff H3-PE09” value turned out to be 3.99e-05 s⁻¹, the “Kon H3-PE09” value was found to be 152000 M⁻¹ s⁻¹ and the “binding to trimeric full-length H3 A/Perth/16/09” value is on record as “bound”. Further, the “affinity for H1 subtypes” value with binding [12] is “high affinity”. Besides, in the data set on in_vivo [13], the “body weight loss, H7N9-AH13 challenge” value is reported as “minimal body weight loss” and the “protection from death, H7N9-AH13 challenge” value is reported as “fully protected”. Further, the “virus levels in the lungs at high doses” value in the data set on in_vivo [14] (doses ≥5 mg/kg) is recorded as “reduced virus levels”. Also, the “increase of viral titers in lung tissue, 3I14 compared to 3I14 LALA” value in the data set on in_vivo [14] (intermediate low dose levels) was ~2 fold. In addition, the “virus levels in the lungs compared with controls” value in the data set with in_vivo [14] (intermediate low dose levels, IP 1 hour prior to intranasal challenge, Day 4) was ~2 fold. Further, in the data set with binding [15], the “inhibition of binding of 39.29 and F10 to H5-VN04” value is “inhibited; also recorded: partially inhibits”; the “inhibition of binding of anti-H5 head antibody 2A to H5-VN04” value is listed as “did not inhibit; also recorded: does not inhibit”. At binding [16], the Kd was 5.23 nM. Moreover, the “IC50 H1-PR8” value in the data set with cell_based [17] amounted to 0.413 mg/L. The “prevention of trypsin cleavage of immature HA0” value in the data set on biochemical_functional is on record as “prevented cleavage of immature HA0”. The “binding to HA1 subunit of H3 PE-09” value with binding [18] was “did not bind”. Also, in the data set with in_vivo [19], the “protection against H5N1-VN04” value is recorded as 60% and the “protection against H5N1-VN04, over doses” value was 20-60%. Moreover, in the data set on cell_based [20], the “HA1-HA2 dissociation after DTT treatment” value is recorded as “prevented HA1-HA2 dissociation”; the “binding to dissociated HA2 mediated by DTT reduction” value is “did not bind”; the “binding to uncleaved HA precursor (HA0) and mature forms (HA)” value was “binds to both uncleaved HA precursor (HA0)”. For the same molecule, in the data set on cell_based [20] (pH 4.9), the “inhibition of pH-dependent HA rearrangement” value is reported as “inhibits the pH-dependent HA rearrangement”. In the data set with cell_based [21], the “luciferase response in Jurkat reporter cells (ADCC), H3 targets” value is on record as “induced a significant luciferase response”.

B2: 3I14 Fab: Fab of 3I14 used in the binding competition ELISA (antibody, V domains shown)
VH: QVQLLESGGGVVQPGRSLRLSCAASGFTFSNYGMHWVRQAPGKGLEWVAIISFDGSKKYYANSVKGRSTISRDNSKNTLSLQMNSLGPEDTALYYCAKLPSPYYFDSRFVWVAASAFHFWGQGILVTVSS
VL: NFMLTQPPSASGTPGQRVTISCSGSSSNIGGNTVHWFQQLPGTAPKLLIYTNSLRPSGVPDRFSGSKSGTSASLAISGLQSEDEADYYCAAWDDSLNGQVFGGGTKLTVL
As to B2, in the data set with binding [22], the “competition with E730 (anti-HA1 head Ab) for binding to H3-BR07” value was “did not compete”; the “competition with anti-stem Abs CR8020, CR9114, FI6(v3) and 39.29 for binding to H3-BR07” value is reported as “cross-competed; also recorded: strongly inhibits”.

B3: MHAA4549A: Genentech broadly neutralizing influenza A mAb (antibody, chains of the INN, looked up, V domains shown)
VH: EVQLVESGGGVVQPGKSLRLSCAASGLTFSSYAVHWVRQAPGKGLEWVTLISYDGANQYYADSVKGRFTISRDNSKNTVYLQMNSLRPEDTAVYYCAVPGPVFGIFPPWSYFDNWGQGILVTVSS
VL: EIVLTQSPATLSVSPGERATLSCRASQVISHNLAWYQQKPGQAPRLLIYGASTRASGIPARFSGSGSGTDYTLTITSLQSEDFAVYYCQHYSNWPPRLTFGGGTKVEIK
As to B3, the viral load entry in the data set on in_vivo [23] (1200 mg, listed as MHAA4549A/Gedivumab) is “increase in viral load”. For the same molecule, the viral loads result in the data set on in_vivo [23] (400 and 3600 mg) was “reduction in viral loads”. Further, in the data set with in_vivo [24], the “O2 or ventilation support” value is listed as “required increase in O2 or ventilation support”, the “duration of viral shedding” value is listed as “increased duration of viral shedding” and the “fatality due to any cause” value is “higher fatality percentage due to any cause”.
